One assay concerns the target T1, Crm1 (human, UniProt O14980 1-1071).
T1 construct: Crm1 (exportin), human, full length, wild type; also called exportin Crm1; source: E. coli BL21(DE3) SoluBL21 with Codon Plus (RIL) plasmid, purified (Ni-NTA, Ulp1 cleavage, Superdex 200, MonoQ); not shown: His6, N-terminal, cleaved; Smt3, N-terminal, cleaved
As to the kind of experiment: cryo-EM structure; purified RanBP2^RBD4/SUMO1^Q94P-RanGAP1/Ubc9 incubated with excess Crm1 and Ran^Q69L(GTP), gel filtration in 20 mM HEPES pH 7.4, 110 mM potassium acetate, 2 mM magnesium acetate, 1 mM TCEP; lightly crosslinked with 250 µM BS3; 0.1% CHAPSO; 9.7 mg/mL. The note with it: both partners purified.

Another assay deals with Ran^Q69L(GTP) (human, UniProt P62826 1-216, Q69L). Described as above. The note with it: both partners purified.

T1 sequence (O14980 whole entry): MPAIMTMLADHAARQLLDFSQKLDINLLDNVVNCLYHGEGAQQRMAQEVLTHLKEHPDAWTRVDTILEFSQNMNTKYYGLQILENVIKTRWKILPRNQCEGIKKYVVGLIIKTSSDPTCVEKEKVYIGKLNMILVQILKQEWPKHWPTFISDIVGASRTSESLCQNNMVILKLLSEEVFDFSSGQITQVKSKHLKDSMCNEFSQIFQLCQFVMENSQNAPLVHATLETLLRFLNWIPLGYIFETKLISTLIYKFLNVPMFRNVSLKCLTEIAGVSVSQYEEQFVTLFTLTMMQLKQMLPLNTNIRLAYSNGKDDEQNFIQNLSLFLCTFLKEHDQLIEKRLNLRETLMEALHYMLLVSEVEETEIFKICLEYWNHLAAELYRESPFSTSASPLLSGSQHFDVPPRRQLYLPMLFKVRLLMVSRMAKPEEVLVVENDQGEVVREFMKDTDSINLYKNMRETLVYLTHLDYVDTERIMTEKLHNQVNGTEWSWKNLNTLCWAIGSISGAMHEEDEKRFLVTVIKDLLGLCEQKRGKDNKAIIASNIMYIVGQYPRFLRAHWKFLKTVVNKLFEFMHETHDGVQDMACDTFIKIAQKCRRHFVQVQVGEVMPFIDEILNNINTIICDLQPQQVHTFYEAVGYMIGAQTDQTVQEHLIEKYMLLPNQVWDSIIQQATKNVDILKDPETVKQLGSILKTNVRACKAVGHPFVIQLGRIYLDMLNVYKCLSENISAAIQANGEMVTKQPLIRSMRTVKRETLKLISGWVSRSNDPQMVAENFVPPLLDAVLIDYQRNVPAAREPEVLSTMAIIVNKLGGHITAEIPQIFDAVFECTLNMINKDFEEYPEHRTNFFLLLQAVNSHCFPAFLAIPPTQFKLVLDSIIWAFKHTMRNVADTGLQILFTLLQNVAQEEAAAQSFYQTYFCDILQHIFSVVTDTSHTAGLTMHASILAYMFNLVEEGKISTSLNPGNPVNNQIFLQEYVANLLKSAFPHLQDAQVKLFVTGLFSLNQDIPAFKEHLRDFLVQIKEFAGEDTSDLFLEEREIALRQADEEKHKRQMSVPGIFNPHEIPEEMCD

B1: RanBP2^2446-3060 (RanBP2^RBD4) (domain or fragment, human, UniProt P49792 2446-3060, looked up)
chain: DSLITPHVSRSSTPRESPCGKIAVAVLEETTRERTDVIQGDDVADATSEVEVSSTSETTPKAVVSPPKFVFGSESVKSIFSSEKSKPFAFGNSSATGSLFGFSFNAPLKSNNSETSSVAQSGSESKVEPKKCELSKNSDIEQSSDSKVKNLFASFPTEESSINYTFKTPEKAKEKKKPEDSPSDDDVLIVYELTPTAEQKALATKLKLPPTFFCYKNRPDYVSEEEEDDEDFETAVKKLNGKLYLDGSEKCRPLEENTADNEKECIIVWEKKPTVEEKAKADTLKLPPTFFCGVCSDTDEDNGNGEDFQSELQKVQEAQKSQTEEITSTTDSVYTGGTEVMVPSFCKSEEPDSITKSISSPSVSSETMDKPVDLSTRKEIDTDSTSQGESKIVSFGFGSSTGLSFADLASSNSGDFAFGSKDKNFQWANTGAAVFGTQSVGTQSAGKVGEDEDGSDEEVVHNEDIHFEPIVSLPEVEVKSGEEDEEILFKERAKLYRWDRDVSQWKERGVGDIKILWHTMKNYYRILMRRDQVFKVCANHVITKTMELKPLNVSNNALVWTASDYADGEAKVEQLAVRFKTKEVADCFKKTFEECQQNLMKLQKGHVSLAAELSK
notes: RanBP2 (Nup358), human, residues 2446-3060: FG1, IR1-M-IR2, FG2 and RBD4; also called RanBP2 FG1-IR1-M-IR2-FG2-RBD4 fragment; hRanBP2^RBD4; source: E. coli BL21(DE3) Codon Plus (RIL), purified (Ni-NTA, Superdex 200)
In the case of B1, the binding result with Crm1 and with Ran^Q69L(GTP) was “binds” throughout.

Source of the values: article PMC12246119 (Nature Communications, 2025).
